Literature values, collected in PMC3894449.
pKd: −log10 of the molar value.

How the values were obtained:
[1] = target: IL-15Ralpha (Homo sapiens) (UniProt Q13261)
[2] = target: IL-2Ralpha (Homo sapiens) (UniProt P01589)
UniProt P01589, sequence (P01589 22-240): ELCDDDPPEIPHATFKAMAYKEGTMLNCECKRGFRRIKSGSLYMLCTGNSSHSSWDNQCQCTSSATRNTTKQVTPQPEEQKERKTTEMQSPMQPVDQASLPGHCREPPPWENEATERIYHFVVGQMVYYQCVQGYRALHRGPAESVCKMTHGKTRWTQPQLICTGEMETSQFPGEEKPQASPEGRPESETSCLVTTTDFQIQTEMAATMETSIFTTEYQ

UniProt Q13261, sequence (Q13261 31-205): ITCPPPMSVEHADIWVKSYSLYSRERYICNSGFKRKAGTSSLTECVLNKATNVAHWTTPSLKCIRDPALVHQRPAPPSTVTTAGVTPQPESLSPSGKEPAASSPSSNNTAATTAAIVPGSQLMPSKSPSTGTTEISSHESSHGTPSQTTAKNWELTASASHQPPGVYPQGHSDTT

Substance | pKd [1] | pKd [2]
IL-15 (from UniProt P40933) | 10.30 | –
IL-2 (from UniProt P60568) | – | 7.70
